Common to all, as to experiment: SPR, antibody captured, FcgR analyte
On the technique in general: In SPR one partner is held on a chip, and binding of the other changes the refractive index at the surface.

Test [1] concerns the target T1, FcγRIIb extracellular domain with C-terminal His tag (human, UniProt P31994 43-217).
T1 construct: extracellular domain; also called FcgRIIb; not shown: His tag at the C terminus
T1 sequence (looked up): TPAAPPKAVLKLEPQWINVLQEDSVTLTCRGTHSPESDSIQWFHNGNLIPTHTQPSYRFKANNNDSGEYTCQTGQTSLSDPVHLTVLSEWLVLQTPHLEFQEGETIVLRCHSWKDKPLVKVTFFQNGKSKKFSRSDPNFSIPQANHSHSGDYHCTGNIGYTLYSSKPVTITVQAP

Test [2] has as its target T2, FcγRIa extracellular domain with C-terminal His tag (human, UniProt P12314 16-292).
T2 construct: also called FcgRIa; CD64; not shown: His tag at the C terminus

For test [3], the target named is T3, FcγRIIa R type extracellular domain with C-terminal His tag (human, UniProt P12318 34-217).
T3 construct: extracellular domain; also called FcgRIIaR; not shown: His tag at the C terminus
T3 sequence (looked up): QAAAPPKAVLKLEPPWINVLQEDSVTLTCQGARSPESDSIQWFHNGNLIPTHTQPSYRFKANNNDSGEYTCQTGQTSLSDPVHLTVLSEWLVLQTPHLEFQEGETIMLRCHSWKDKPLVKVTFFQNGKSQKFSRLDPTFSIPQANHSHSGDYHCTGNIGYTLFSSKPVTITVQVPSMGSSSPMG

T2 sequence (P12314 16-292): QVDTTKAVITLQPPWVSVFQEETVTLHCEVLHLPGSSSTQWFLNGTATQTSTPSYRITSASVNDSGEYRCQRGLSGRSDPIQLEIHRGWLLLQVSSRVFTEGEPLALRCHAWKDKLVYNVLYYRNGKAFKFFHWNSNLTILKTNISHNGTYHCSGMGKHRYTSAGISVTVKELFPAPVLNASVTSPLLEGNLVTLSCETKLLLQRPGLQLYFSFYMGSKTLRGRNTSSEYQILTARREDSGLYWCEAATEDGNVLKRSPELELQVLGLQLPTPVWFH

B1: IL6R-BP490/IL6R-L (antibody, human IgG1, kappa, name in EU numbering)
heavy: QVQLQESGPGLVKPSETLSLTCAVSGHSISHDHAWSWVRQPPGEGLEWIGFISYSGITNYNPSLQGRVTISRDNSKNTLYLQMNSLRAEDTAVYYCARSLARTTAMDYWGEGTLVTVSSASTKGPSVFPLAPSSKSTSGGTAALGCLVKDYFPEPVTVSWNSGALTSGVHTFPAVLQSSGLYSLSSVVTVPSSSLGTQTYICNVNHKPSNTKVDKKVEPKSCDKTHTCPPCPAPELLGDDSVFLFPPKPKDTLMISRTPEVTCVVIDVAEEDGEVKFNWYVDGVEVHNAKTKPREEQYNSTYRVVSVLTVLHQDWLNGKEYKCKVSNKALPRPIEKTISKAKGQPREPQVYTLPPSRDELTKNQVSLTCLVKGFYPSDIAVEWESNGQPENNYKTTPPVLDSDGSFFLYSKLTVDKSRWQQGNVFSCSVMHEALHNHYTQESLSLSP
light: not shown
notes: human IgG1
The Kd is the free concentration of one partner at which half of the binding sites on the other are occupied at equilibrium, for simple one-to-one binding. Low readings indicate a tighter complex, high ones a looser complex. Regarding B1, the Kd in test [1] worked out at 2.4 nM; in test [2], 4.5 nM; in test [3] it was 110 nM.

B2: IL6R-BP537/IL6R-L (antibody, human IgG1)
heavy: QVQLQESGPGLVKPSETLSLTCAVSGHSISHDHAWSWVRQPPGEGLEWIGFISYSGITNYNPSLQGRVTISRDNSKNTLYLQMNSLRAEDTAVYYCARSLARTTAMDYWGEGTLVTVSSASTKGPSVFPLAPSSKSTSGGTAALGCLVKDYFPEPVTVSWNSGALTSGVHTFPAVLQSSGLYSLSSVVTVPSSSLGTQTYICNVNHKPSNTKVDKKVEPKSCDKTHTCPPCPAPELLGDDSVFLFPPKPKDTLMISRTPEVTCVVIDVGEEDGEVKFNWYVDGVEVHNAKTKPREEQYNSTYRVVSVLTVLHQDWLNGKEYKCKVSNKALPRPIEKTISKAKGQPREPQVYTLPPSRDELTKNQVSLTCLVKGFYPSDIAVEWESNGQPENNYKTTPPVLDSDGSFFLYSKLTVDKSRWQQGNVFSCSVMHEALHNHYTQESLSLSP
light: not shown
notes: human IgG1
Take B2: the Kd in test [1] was determined as 6.9 nM; in test [2], 29 nM; in test [3] it was 270 nM.

B3: IL6R-BP534/IL6R-L (antibody, human IgG1, kappa, name in EU numbering)
heavy: QVQLQESGPGLVKPSETLSLTCAVSGHSISHDHAWSWVRQPPGEGLEWIGFISYSGITNYNPSLQGRVTISRDNSKNTLYLQMNSLRAEDTAVYYCARSLARTTAMDYWGEGTLVTVSSASTKGPSVFPLAPSSKSTSGGTAALGCLVKDYFPEPVTVSWNSGALTSGVHTFPAVLQSSGLYSLSSVVTVPSSSLGTQTYICNVNHKPSNTKVDKKVEPKSCDKTHTCPPCPAPDLLGDDSVFLFPPKPKDTLMISRTPEVTCVVIDVSEEDGEVKFNWYVDGVEVHNAKTKPREEQDNSTYRVVSVLTVLHQDWLNGKEYKCKVSNKALPRPIEKTISKAKGQPREPQVYTLPPSRDELTKNQVSLTCLVKGFYPSDIAVEWESNGQPENNYKTTPLVLDSDGSFFLYSKLTVDKSRWQQGNVFSCSVMHEALHNHYTQESLSLSP
light: not shown
notes: human IgG1
Consider B3, for which the figures for the Kd in test [1], in test [2] and in test [3] were 3 nM, 9.3 nM and 91 nM, respectively.

B4: IL6R-BP553/IL6R-L (antibody, human IgG1, kappa, name in EU numbering)
heavy: QVQLQESGPGLVKPSETLSLTCAVSGHSISHDHAWSWVRQPPGEGLEWIGFISYSGITNYNPSLQGRVTISRDNSKNTLYLQMNSLRAEDTAVYYCARSLARTTAMDYWGEGTLVTVSSASTKGPSVFPLAPSSKSTSGGTAALGCLVKDYFPEPVTVSWNSGALTSGVHTFPAVLQSSGLYSLSSVVTVPSSSLGTQTYICNVNHKPSNTKVDKKVEPKSCDKTHTCPPCPAPDLLGDDSVFLFPPKPKDTLMISRTPEVTCVVIDVAEEDGDVKFNWYVDGVEVHNAKTKPREEQYNSTYRVVSVLTVLHQDWLNGKEYKCKVSNKALPRPIEKTISKAKGQPREPQVYTLPPSRDELTKNQVSLTCLVKGFYPSDIAVEWESNGQPENNYKTTPPVLDSDGSFFLYSKLTVDKSRWQQGNVFSCSVMHEALHNHYTQESLSLSP
light: not shown
notes: human IgG1
For B4, the figures for the equilibrium dissociation constant (Kd) in test [1], in test [2] and in test [3] were 3.1 nM, 3.4 nM and 86 nM, respectively.

B5: IL6R-BP506/IL6R-L (antibody, human IgG1, kappa, name in EU numbering)
heavy: QVQLQESGPGLVKPSETLSLTCAVSGHSISHDHAWSWVRQPPGEGLEWIGFISYSGITNYNPSLQGRVTISRDNSKNTLYLQMNSLRAEDTAVYYCARSLARTTAMDYWGEGTLVTVSSASTKGPSVFPLAPSSKSTSGGTAALGCLVKDYFPEPVTVSWNSGALTSGVHTFPAVLQSSGLYSLSSVVTVPSSSLGTQTYICNVNHKPSNTKVDKKVEPKSCDKTHTCPPCPAPDLLGDDSVFLFPPKPKDTLMISRTPEVTCVVIDVAEEDGPVKFNWYVDGVEVHNAKTKPREEQDNSTYRVVSVLTVLHQDWLNGKEYKCKVSNKALPRPIEKTISKAKGQPREPQVYTLPPSRDELTKNQVSLTCLVKGFYPSDIAVEWESNGQPENNYKTTPPVLDSDGSFFLYSKLTVDKSRWQQGNVFSCSVMHEALHNHYTQESLSLSP
light: not shown
notes: human IgG1
B5: the Kd turned out to be 3.4 nM in test [1], 3.1 nM in test [2] and 120 nM in test [3].

B6: IL6R-BP535/IL6R-L (antibody, human IgG1, kappa, name in EU numbering)
heavy: QVQLQESGPGLVKPSETLSLTCAVSGHSISHDHAWSWVRQPPGEGLEWIGFISYSGITNYNPSLQGRVTISRDNSKNTLYLQMNSLRAEDTAVYYCARSLARTTAMDYWGEGTLVTVSSASTKGPSVFPLAPSSKSTSGGTAALGCLVKDYFPEPVTVSWNSGALTSGVHTFPAVLQSSGLYSLSSVVTVPSSSLGTQTYICNVNHKPSNTKVDKKVEPKSCDKTHTCPPCPAPDLLGDDSVFLFPPKPKDTLMISRTPEVTCVVIDVGEEDGEVKFNWYVDGVEVHNAKTKPREEQDNSTYRVVSVLTVLHQDWLNGKEYKCKVSNKGLPRPIEKTISKAKGQPREPQVYTLPPSRDELTKNQVSLTCLVKGFYPSDIAVEWESNGQPENNYKTTPMVLDSDGSFFLYSKLTVDKSRWQQGNVFSCSVMHEALHNHYTQESLSLSP
light: not shown
notes: human IgG1
With B6, the Kd was 4 nM in test [1], 11 nM in test [2] and 92 nM in test [3].

B7: IL6R-BP532/IL6R-L (antibody, human IgG1, kappa, name in EU numbering)
heavy: QVQLQESGPGLVKPSETLSLTCAVSGHSISHDHAWSWVRQPPGEGLEWIGFISYSGITNYNPSLQGRVTISRDNSKNTLYLQMNSLRAEDTAVYYCARSLARTTAMDYWGEGTLVTVSSASTKGPSVFPLAPSSKSTSGGTAALGCLVKDYFPEPVTVSWNSGALTSGVHTFPAVLQSSGLYSLSSVVTVPSSSLGTQTYICNVNHKPSNTKVDKKVEPKSCDKTHTCPPCPAPDLLGDDSVFLFPPKPKDTLMISRTPEVTCVVIDVSEEDGEVKFNWYVDGVEVHNAKTKPREEQDNSTYRVVSVLTVLHQDWLNGKEYKCKVSNKALPRPIEKTISKAKGQPREPQVYTLPPSRDELTKNQVSLTCLVKGFYPSDIAVEWESNGQPENNYKTTPMVLDSDGSFFLYSKLTVDKSRWQQGNVFSCSVMHEALHNHYTQESLSLSP
light: not shown
notes: human IgG1
On to B7, for which the Kd in test [1] came out at 3.2 nM; in test [2], 12 nM; in test [3] it was 94 nM.

B8: IL6R-BP507/IL6R-L (antibody, human IgG1, kappa, name in EU numbering)
heavy: QVQLQESGPGLVKPSETLSLTCAVSGHSISHDHAWSWVRQPPGEGLEWIGFISYSGITNYNPSLQGRVTISRDNSKNTLYLQMNSLRAEDTAVYYCARSLARTTAMDYWGEGTLVTVSSASTKGPSVFPLAPSSKSTSGGTAALGCLVKDYFPEPVTVSWNSGALTSGVHTFPAVLQSSGLYSLSSVVTVPSSSLGTQTYICNVNHKPSNTKVDKKVEPKSCDKTHTCPPCPAPDLLGDDSVFLFPPKPKDTLMISRTPEVTCVVIDVAEEDGPVKFNWYVDGVEVHNAKTKPREEQYNSTYRVVSVLTVLHQDWLNGKEYKCKVSNKALPRPIEKTISKAKGQPREPQVYTLPPSRDELTKNQVSLTCLVKGFYPSDIAVEWESNGQPENNYKTTPPVLDSDGSFFLYSKLTVDKSRWQQGNVFSCSVMHEALHNHYTQESLSLSP
light: not shown
notes: human IgG1
Turning to B8, the results for the Kd in test [1], in test [2] and in test [3] were 2.9 nM, 2.6 nM and 100 nM, respectively.

B9: IL6R-BP552/IL6R-L (antibody, human IgG1, kappa, name in EU numbering)
heavy: QVQLQESGPGLVKPSETLSLTCAVSGHSISHDHAWSWVRQPPGEGLEWIGFISYSGITNYNPSLQGRVTISRDNSKNTLYLQMNSLRAEDTAVYYCARSLARTTAMDYWGEGTLVTVSSASTKGPSVFPLAPSSKSTSGGTAALGCLVKDYFPEPVTVSWNSGALTSGVHTFPAVLQSSGLYSLSSVVTVPSSSLGTQTYICNVNHKPSNTKVDKKVEPKSCDKTHTCPPCPAPDLLGDDSVFLFPPKPKDTLMISRTPEVTCVVIDVAEEDGDVKFNWYVDGVEVHNAKTKPREEQDNSTYRVVSVLTVLHQDWLNGKEYKCKVSNKALPRPIEKTISKAKGQPREPQVYTLPPSRDELTKNQVSLTCLVKGFYPSDIAVEWESNGQPENNYKTTPPVLDSDGSFFLYSKLTVDKSRWQQGNVFSCSVMHEALHNHYTQESLSLSP
light: not shown
notes: human IgG1
Turning to B9, the equilibrium dissociation constant (Kd) was 2.6 nM in test [1], 3.2 nM in test [2] and 97 nM in test [3].

B10: IL6R-BP531/IL6R-L (antibody, human IgG1, kappa, name in EU numbering)
heavy: QVQLQESGPGLVKPSETLSLTCAVSGHSISHDHAWSWVRQPPGEGLEWIGFISYSGITNYNPSLQGRVTISRDNSKNTLYLQMNSLRAEDTAVYYCARSLARTTAMDYWGEGTLVTVSSASTKGPSVFPLAPSSKSTSGGTAALGCLVKDYFPEPVTVSWNSGALTSGVHTFPAVLQSSGLYSLSSVVTVPSSSLGTQTYICNVNHKPSNTKVDKKVEPKSCDKTHTCPPCPAPDLLGDDSVFLFPPKPKDTLMISRTPEVTCVVIDVGEEDGEVKFNWYVDGVEVHNAKTKPREEQDNSTYRVVSVLTVLHQDWLNGKEYKCKVSNKALPRPIEKTISKAKGQPREPQVYTLPPSRDELTKNQVSLTCLVKGFYPSDIAVEWESNGQPENNYKTTPMVLDSDGSFFLYSKLTVDKSRWQQGNVFSCSVMHEALHNHYTQESLSLSP
light: not shown
notes: human IgG1
For B10, the Kd was 3.8 nM in test [1], 9.4 nM in test [2] and 120 nM in test [3].
